Results taken from patent US20170260272A1 (Novartis, published 2017).

Target: APP-Avi-soluble human LOX-1(61-273) (human, UniProt P78380 61-273)
Assay: SET, IgG vs soluble human LOX-1
Procedure: Affinity determination for anti-LOX-1 IgGs using Solution Equilibrium Titration (SET) was basically performed as described in the literature (Friguet et al., 1985 J Immunol Methods 77: 305-319). The assays were performed in a 96-well polypropylene plate (Thermo Scientific, Catalog no. AB-1127) using a constant concentration of LOX-1 antibody mixed with different concentrations of non-biotinylated human or cynomolgus monkey LOX-1 protein and incubated at 22° C. for 14 hours with constant shaking (300 rpm).
On a pre-blocked MSD plate (Meso Scale Discovery, catalog no. L21SA) biotinylated human or cynomolgus monkey soluble LOX-1 protein was immobilized and washed afterwards. The equilibrium binding reactions were then applied to the MSD plate with immobilized LOX-1 and incubated for 30 min. The unbound material was removed by washing the plate, and the captured antibody was detected by adding Sulfo-tagged goat anti-human IgG (Meso Scale Discovery, catalog no. R3AJ-1). After incubation and washing 1×MSD read buffer T(Meso Scale Discovery, catalog no. R92TC-2) was added and the plate was developed using a Sector Imager 6000 (Meso Scale Discovery). The data were transferred to Excel for analysis and plotted using GraphPad Prism v5. The KD values were determined by fitting the data to the following equation: […]

Row | Binder | Kd [pM]
1 | MOR021458 (antibody, V domains shown, IgG (human IgG1f LALA); parent MOR20144 with the printed HCDR2 stretch exchanged) VH: QVQLLESGGGLVQPGGSLRLSCAASGFTFSDYALHWVRQAPGKGLEWVSSISYVGGFIYYADSVKGRFTISRDNSKNTLYLQMNSLRAEDTAVYYCARSPGLTSYHDSWGQGTLVTVSS VL: DIVLTQPPSVSGAPGQRVTISCSGSSSNIGSNYVSWYQQLPGTAPKLLIHSNSHRPSGVPDRFSGSKSGTSASLAITGLQAEDEADYYCQSWDYESERVVFGGGTKLTVLG | 0.6
2 | MOR021463 (antibody, V domains shown, IgG (human IgG1f LALA); parent MOR20144 with the printed HCDR2 stretch exchanged) VH: QVQLLESGGGLVQPGGSLRLSCAASGFTFSDYALHWVRQAPGKGLEWVSVISYMGGFKYYADSVKGRFTISRDNSKNTLYLQMNSLRAEDTAVYYCARSPGLTSYHDSWGQGTLVTVSS VL: DIVLTQPPSVSGAPGQRVTISCSGSSSNIGSNYVSWYQQLPGTAPKLLIHSNSHRPSGVPDRFSGSKSGTSASLAITGLQAEDEADYYCQSWDYESERVVFGGGTKLTVLG | 1.3
3 | MOR021461 (antibody, V domains shown, IgG (human IgG1f LALA); parent MOR20144 with the printed HCDR2 stretch exchanged) VH: QVQLLESGGGLVQPGGSLRLSCAASGFTFSDYALHWVRQAPGKGLEWVSVISYAGGFTYYADSVKGRFTISRDNSKNTLYLQMNSLRAEDTAVYYCARSPGLTSYHDSWGQGTLVTVSS VL: DIVLTQPPSVSGAPGQRVTISCSGSSSNIGSNYVSWYQQLPGTAPKLLIHSNSHRPSGVPDRFSGSKSGTSASLAITGLQAEDEADYYCQSWDYESERVVFGGGTKLTVLG | 0.2
4 | MOR021459 (antibody, V domains shown, IgG (human IgG1f LALA); parent MOR20144 with the printed HCDR2 stretch exchanged) VH: QVQLLESGGGLVQPGGSLRLSCAASGFTFSDYALHWVRQAPGKGLEWVSVISYVGGFKFYADSVKGRFTISRDNSKNTLYLQMNSLRAEDTAVYYCARSPGLTSYHDSWGQGTLVTVSS VL: DIVLTQPPSVSGAPGQRVTISCSGSSSNIGSNYVSWYQQLPGTAPKLLIHSNSHRPSGVPDRFSGSKSGTSASLAITGLQAEDEADYYCQSWDYESERVVFGGGTKLTVLG | 0.4
5 | MOR021462 (antibody, V domains shown, IgG (human IgG1f LALA); parent MOR20144 with the printed HCDR2 stretch exchanged) VH: QVQLLESGGGLVQPGGSLRLSCAASGFTFSDYALHWVRQAPGKGLEWVSGISYQGGFIFYADSVKGRFTISRDNSKNTLYLQMNSLRAEDTAVYYCARSPGLTSYHDSWGQGTLVTVSS VL: DIVLTQPPSVSGAPGQRVTISCSGSSSNIGSNYVSWYQQLPGTAPKLLIHSNSHRPSGVPDRFSGSKSGTSASLAITGLQAEDEADYYCQSWDYESERVVFGGGTKLTVLG | 0.9

Results, then the binder that gave them:

Row | Kd [pM] | Binder
6 | 0.6 | MOR021466 (antibody, V domains shown, IgG (human IgG1f LALA); parent MOR20144 with the printed HCDR2 stretch exchanged) VH: QVQLLESGGGLVQPGGSLRLSCAASGFTFSDYALHWVRQAPGKGLEWVSVISYMGGFKFYADSVKGRFTISRDNSKNTLYLQMNSLRAEDTAVYYCARSPGLTSYHDSWGQGTLVTVSS VL: DIVLTQPPSVSGAPGQRVTISCSGSSSNIGSNYVSWYQQLPGTAPKLLIHSNSHRPSGVPDRFSGSKSGTSASLAITGLQAEDEADYYCQSWDYESERVVFGGGTKLTVLG
7 | 0.9 | MOR021467 (antibody, V domains shown, IgG (human IgG1f LALA); parent MOR20144 with the printed HCDR2 stretch exchanged) VH: QVQLLESGGGLVQPGGSLRLSCAASGFTFSDYALHWVRQAPGKGLEWVSVISYQGGFTFYADSVKGRFTISRDNSKNTLYLQMNSLRAEDTAVYYCARSPGLTSYHDSWGQGTLVTVSS VL: DIVLTQPPSVSGAPGQRVTISCSGSSSNIGSNYVSWYQQLPGTAPKLLIHSNSHRPSGVPDRFSGSKSGTSASLAITGLQAEDEADYYCQSWDYESERVVFGGGTKLTVLG
8 | 1.6 | MOR021465 (antibody, V domains shown, IgG (human IgG1f LALA); parent MOR20144 with the printed HCDR2 stretch exchanged) VH: QVQLLESGGGLVQPGGSLRLSCAASGFTFSDYALHWVRQAPGKGLEWVSVISYQGAFIYYADSVKGRFTISRDNSKNTLYLQMNSLRAEDTAVYYCARSPGLTSYHDSWGQGTLVTVSS VL: DIVLTQPPSVSGAPGQRVTISCSGSSSNIGSNYVSWYQQLPGTAPKLLIHSNSHRPSGVPDRFSGSKSGTSASLAITGLQAEDEADYYCQSWDYESERVVFGGGTKLTVLG
